Assay results taken from patent publication US20240124595A1 (UNIVERSITY OF SASKATCHEWAN, published 2024).

Key:
[1] = molecular target: T1, recombinant human IGF2R domains 11-13 Fc fusion protein (human, UniProt P11717 1511-1989); assay: ELISA on coated recombinant IGF2R
T1 construct: Soluble Fc fusion expressed in Expi293F; also called human IGF2R fragment; not shown: human IgG1 Fc from a modified pFUSE-hIgG1-Fc2 vector (Invivogen)

[2] = molecular target: T2, recombinant murine IGF2R domains 11-13 Fc fusion protein (murine; human, UniProt Q07113 1504-1982); assay: ELISA on coated recombinant IGF2R
T2 construct: Soluble Fc fusion expressed in Expi293F; also called murine IGF2R fragment; not shown: human IgG1 Fc from a modified pFUSE-hIgG1-Fc2 vector (Invivogen)

[3] = molecular target: T3, recombinant canine IGF2R domains 11-13 Fc fusion protein (canine; human); assay: ELISA on coated recombinant IGF2R
T3 construct: Soluble Fc fusion expressed in Expi293F; also called canine IGF2R fragment; not shown: human IgG1 Fc from a modified pFUSE-hIgG1-Fc2 vector (Invivogen)
T3 chain: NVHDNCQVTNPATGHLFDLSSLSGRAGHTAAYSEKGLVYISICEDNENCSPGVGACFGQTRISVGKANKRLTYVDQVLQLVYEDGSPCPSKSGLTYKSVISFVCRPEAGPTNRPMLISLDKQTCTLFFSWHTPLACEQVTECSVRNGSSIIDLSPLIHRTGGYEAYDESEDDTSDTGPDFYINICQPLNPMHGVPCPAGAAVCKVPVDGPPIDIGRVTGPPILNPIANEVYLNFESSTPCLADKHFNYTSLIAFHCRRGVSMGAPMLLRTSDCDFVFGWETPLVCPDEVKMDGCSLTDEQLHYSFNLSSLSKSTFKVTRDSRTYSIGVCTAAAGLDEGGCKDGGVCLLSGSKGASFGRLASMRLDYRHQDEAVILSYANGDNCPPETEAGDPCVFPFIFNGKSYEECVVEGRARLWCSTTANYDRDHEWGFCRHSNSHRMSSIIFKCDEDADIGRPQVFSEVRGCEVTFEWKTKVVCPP

[4] = molecular target: T4, human IGF2R on human osteosarcoma cells (human, UniProt P11717 41-2491); assay: flow cytometry on human OS cell lines
T4 construct: whole, on cells; Endogenous receptor on tumour cell lines, not transfected cells; also called OS-33
T4 sequence (P11717 41-2491): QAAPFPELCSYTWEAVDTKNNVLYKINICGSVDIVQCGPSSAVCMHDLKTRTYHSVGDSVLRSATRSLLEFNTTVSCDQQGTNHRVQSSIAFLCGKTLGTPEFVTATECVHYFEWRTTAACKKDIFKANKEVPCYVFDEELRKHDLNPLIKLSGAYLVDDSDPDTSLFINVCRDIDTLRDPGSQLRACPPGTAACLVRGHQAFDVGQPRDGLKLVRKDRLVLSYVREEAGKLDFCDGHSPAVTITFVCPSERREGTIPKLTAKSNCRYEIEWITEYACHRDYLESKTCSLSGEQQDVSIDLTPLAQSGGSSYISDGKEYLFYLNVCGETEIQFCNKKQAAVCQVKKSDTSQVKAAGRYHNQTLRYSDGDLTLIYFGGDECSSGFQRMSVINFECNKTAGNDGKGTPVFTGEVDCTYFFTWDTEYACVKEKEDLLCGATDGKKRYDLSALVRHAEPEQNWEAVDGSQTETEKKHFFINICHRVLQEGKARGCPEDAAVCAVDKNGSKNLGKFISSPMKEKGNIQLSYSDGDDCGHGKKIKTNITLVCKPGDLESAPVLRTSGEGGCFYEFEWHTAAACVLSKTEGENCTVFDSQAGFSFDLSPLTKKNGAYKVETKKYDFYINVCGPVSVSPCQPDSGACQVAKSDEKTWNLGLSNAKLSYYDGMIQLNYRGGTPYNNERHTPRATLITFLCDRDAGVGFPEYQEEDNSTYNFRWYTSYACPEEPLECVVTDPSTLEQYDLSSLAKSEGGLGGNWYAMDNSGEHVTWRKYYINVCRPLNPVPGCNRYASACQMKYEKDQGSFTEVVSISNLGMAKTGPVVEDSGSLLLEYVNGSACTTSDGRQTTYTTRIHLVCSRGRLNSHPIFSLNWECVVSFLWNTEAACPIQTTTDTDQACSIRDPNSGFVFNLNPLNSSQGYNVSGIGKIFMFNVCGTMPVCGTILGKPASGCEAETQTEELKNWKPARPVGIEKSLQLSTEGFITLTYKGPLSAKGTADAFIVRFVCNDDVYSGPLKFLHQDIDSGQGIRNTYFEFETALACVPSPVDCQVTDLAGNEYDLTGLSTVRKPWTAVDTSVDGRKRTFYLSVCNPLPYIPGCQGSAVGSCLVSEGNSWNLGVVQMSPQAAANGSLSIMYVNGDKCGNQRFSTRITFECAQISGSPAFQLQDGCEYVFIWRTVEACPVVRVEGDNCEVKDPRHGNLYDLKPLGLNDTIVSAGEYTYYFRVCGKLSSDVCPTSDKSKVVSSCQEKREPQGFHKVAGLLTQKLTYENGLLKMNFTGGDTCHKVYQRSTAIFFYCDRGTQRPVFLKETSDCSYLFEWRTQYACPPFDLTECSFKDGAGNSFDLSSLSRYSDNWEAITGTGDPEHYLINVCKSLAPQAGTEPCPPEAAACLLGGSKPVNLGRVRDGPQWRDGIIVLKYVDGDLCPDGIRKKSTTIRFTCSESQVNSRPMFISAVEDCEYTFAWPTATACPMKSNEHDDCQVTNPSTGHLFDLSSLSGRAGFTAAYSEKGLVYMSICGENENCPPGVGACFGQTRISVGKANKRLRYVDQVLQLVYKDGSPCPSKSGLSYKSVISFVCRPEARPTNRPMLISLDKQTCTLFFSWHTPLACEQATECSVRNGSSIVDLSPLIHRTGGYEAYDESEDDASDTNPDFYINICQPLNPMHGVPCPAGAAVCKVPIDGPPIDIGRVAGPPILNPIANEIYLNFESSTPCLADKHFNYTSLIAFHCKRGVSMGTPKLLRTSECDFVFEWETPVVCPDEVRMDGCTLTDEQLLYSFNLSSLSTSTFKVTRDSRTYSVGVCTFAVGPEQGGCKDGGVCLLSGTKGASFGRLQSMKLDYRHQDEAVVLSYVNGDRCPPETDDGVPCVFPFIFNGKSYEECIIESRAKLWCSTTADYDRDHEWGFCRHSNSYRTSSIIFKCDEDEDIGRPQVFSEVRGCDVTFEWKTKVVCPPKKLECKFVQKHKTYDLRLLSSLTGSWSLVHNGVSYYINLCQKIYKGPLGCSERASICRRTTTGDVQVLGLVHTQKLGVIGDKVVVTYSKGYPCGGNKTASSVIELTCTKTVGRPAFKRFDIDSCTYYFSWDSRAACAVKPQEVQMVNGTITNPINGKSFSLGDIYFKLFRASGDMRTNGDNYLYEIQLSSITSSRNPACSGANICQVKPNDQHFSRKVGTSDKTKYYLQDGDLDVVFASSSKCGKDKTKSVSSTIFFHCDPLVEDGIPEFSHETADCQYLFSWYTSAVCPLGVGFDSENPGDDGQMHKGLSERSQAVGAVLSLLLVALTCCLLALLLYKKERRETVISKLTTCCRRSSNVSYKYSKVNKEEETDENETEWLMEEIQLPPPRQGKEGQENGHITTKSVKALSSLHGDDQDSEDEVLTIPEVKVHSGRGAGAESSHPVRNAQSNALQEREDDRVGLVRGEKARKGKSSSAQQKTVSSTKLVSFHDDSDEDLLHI

[5] = molecular target: T5, recombinant human IGF2R domains 11-13 Fc fusion protein (UniProt P11717 1511-1989); assay: ELISA; printed as "IC 50 or EC 50"
T5 chain: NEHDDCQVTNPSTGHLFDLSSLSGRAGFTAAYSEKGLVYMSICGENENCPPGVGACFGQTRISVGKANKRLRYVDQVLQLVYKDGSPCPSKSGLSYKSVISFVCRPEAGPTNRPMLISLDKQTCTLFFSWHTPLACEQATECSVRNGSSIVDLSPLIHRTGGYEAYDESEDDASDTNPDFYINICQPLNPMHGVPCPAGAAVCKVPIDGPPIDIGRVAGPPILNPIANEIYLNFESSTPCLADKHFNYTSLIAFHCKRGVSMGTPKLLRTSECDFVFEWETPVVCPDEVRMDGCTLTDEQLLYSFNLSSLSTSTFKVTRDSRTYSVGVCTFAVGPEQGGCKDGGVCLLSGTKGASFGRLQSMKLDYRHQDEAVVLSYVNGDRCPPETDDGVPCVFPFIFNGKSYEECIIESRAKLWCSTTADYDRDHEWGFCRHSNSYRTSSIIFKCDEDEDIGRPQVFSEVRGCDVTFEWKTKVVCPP

[6] = molecular target: T6, recombinant canine IGF2R domains 11-13 Fc fusion protein; assay: ELISA; printed as "IC 50 or EC 50"
T6 chain: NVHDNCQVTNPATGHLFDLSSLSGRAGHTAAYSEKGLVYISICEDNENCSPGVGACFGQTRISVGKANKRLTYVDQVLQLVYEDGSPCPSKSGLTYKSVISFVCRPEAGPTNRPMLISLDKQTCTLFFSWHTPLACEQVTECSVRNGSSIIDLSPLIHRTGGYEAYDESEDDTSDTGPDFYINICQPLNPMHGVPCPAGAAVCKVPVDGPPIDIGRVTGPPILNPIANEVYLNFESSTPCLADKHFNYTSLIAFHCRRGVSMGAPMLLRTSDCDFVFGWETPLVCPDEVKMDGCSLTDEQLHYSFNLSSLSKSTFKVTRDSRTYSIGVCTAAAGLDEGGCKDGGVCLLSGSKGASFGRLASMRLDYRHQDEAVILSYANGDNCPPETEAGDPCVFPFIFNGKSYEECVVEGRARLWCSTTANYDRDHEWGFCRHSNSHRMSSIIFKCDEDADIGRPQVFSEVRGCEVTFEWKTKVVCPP

[7] = molecular target: T7, recombinant murine IGF2R domains 11-13 Fc fusion protein (UniProt Q07113 1504-1982); assay: ELISA; printed as "IC 50 or EC 50"
T7 chain: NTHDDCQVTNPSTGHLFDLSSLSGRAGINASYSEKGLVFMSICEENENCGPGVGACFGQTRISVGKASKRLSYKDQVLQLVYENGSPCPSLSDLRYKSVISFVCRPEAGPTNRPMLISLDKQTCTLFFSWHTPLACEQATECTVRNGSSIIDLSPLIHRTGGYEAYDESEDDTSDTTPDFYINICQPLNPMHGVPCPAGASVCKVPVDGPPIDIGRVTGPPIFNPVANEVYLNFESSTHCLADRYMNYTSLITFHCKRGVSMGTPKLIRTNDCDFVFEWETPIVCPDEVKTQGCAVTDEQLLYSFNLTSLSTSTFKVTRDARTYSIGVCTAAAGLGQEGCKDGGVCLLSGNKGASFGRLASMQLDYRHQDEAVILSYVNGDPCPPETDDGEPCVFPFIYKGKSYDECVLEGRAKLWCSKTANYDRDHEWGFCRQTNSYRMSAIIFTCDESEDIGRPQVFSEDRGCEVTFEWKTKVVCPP

[8] = molecular target: T1, recombinant human IGF2R domains 11-13 …; assay: competitive Fab-phage ELISA, same protein in solution as competitor
[9] = molecular target: T2, recombinant murine IGF2R domains 11-13 …; assay: as above
[10] = molecular target: T3, recombinant canine IGF2R domains 11-13 …; assay: as above
[11] = molecular target: T1, recombinant human IGF2R domains 11-13 …; assay: phage ELISA on recombinant IGF2R Fc fusion

B1: IF3 (antibody, human IgG1, kappa, V domains shown)
VH: EVQLVESGGGLVQPGGSLRLSCAASGFNIKDTYIHWVRQAPGKGLEWVAFIDPIFGDTRYADSVKGRFTISADTSKNTAYLQMNSLRAEDTAVYYCSRWGGDGFYAMDYWGQGTLVTVSS
VL: DIQMTQSPSSLSASVGDRVTITCRASQDVNTAVAWYQQKPGKAPKLLIYSASFLYSGVPSRFSGSRSGTDFTLTISSLQPEDFATYYCQQAYFFHHFPPTFGQGTKVEIKR
notes: Full-length human IgG1 kappa expressed in Expi293F cells; also called 1F3; IGF2R-IgG#3
binding result [1]: binds
binding result [2]: binds
binding result [3]: binds
binding result [4]: binds
EC50 [5]: 1.14 nM
EC50 [6]: 3.22 nM
EC50 [7]: 3.06 nM

B2: IGF2R-Fab-3 (Fab, V domains shown)
VH: EVQLVESGGGLVQPGGSLRLSCAASGFNIKDTYIHWVRQAPGKGLEWVAFIDPIFGDTRYADSVKGRFTISADTSKNTAYLQMNSLRAEDTAVYYCSRWGGDGFYAMDYWGQGTLVTVSS
VL: DIQMTQSPSSLSASVGDRVTITCRASQDVNTAVAWYQQKPGKAPKLLIYSASFLYSGVPSRFSGSRSGTDFTLTISSLQPEDFATYYCQQAYFFHHFPPTFGQGTKVEIK
notes: From the synthetic 4D5-8 (trastuzumab framework) library; also called Fab-phage
binding result [8]: binds
binding result [9]: binds
binding result [10]: binds

B3: IGF2R-Fab-1 (Fab, V domains shown)
VH: EVQLVESGGGVVQPGGSLRLSCAASGFTFSSYAMHWVRQAPGKGLEWVAVISYDGSNKYYADSVKGRFTISRDNSKNTLYLQMNSLRAEDTAVYYCARDDRFFGGMDVWGQGTTVTVSS
VL: AIRMTQSPSSLSASVGDRVTITCRASQDISSWLAWYQQKPDKAPKSLIYAASSLEDGVPSRFSGSGSGTDFTLTISSLQAEDFATYYCQQYNTYPWTFGQGTKVEIK
notes: From the naive library (VH3-30 / VK1); also called Fab-phage
binding result [11]: binds
binding result [9]: binds
binding result [10]: binds

B4: IF1 (antibody, human IgG1, kappa, V domains shown)
VH: EVQLVESGGGVVQPGGSLRLSCAASGFTFSSYAMHWVRQAPGKGLEWVAVISYDGSNKYYADSVKGRFTISRDNSKNTLYLQMNSLRAEDTAVYYCARDDRFFGGMDVWGQGTTVTVSS
VL: AIRMTQSPSSLSASVGDRVTITCRASQDISSWLAWYQQKPDKAPKSLIYAASSLEDGVPSRFSGSGSGTDFTLTISSLQAEDFATYYCQQYNTYPWTFGQGTKVEIKR
notes: Full-length human IgG1 kappa expressed in Expi293F cells; also called IGF2R-IgG#1; full-size human IgG from Fab1
binding result [1]: binds
binding result [2]: binds
binding result [3]: binds
binding result [4]: binds

B5: IGF2R-Fab-2 (Fab, V domains shown)
VH: EVQLVESGGGLVQPGGSLRLSCAASGFNIKYTYIHWVRQAPGKGLEWVALIDPHYGFTRYADSVKGRFTISADTSKNTAYLQMNSLRAEDTAVYYCSRWYYDHAMDYWGQGTLVTVSS
VL: DIQMTQSPSSLSASVGDRVTITCRASQLVDTAVAWYQQKPGKAPKLLIYFASYLYSGVPSRFSGSRSGTDFTLTISSLQPEDFATYYCQQVVYYPPTFGQGTKVEIK
notes: as for B2
binding result [8]: binds
binding result [9]: binds
binding result [10]: binds
